Assay [1] addresses monoclonal antibody ZAL2-103a producible from the hybridoma ZAL2-103 (FERM BP-8431). Kind of assay: competitive EIA: unlabeled human ZAQL-2 against HRP-labeled human ZAQL-2 on ZAL2-103a (50 ng/ml) captured on anti-mouse immunoglobulin plate.
Assay [2] concerns the target monoclonal antibody ZAL2-106a producible from the hybridoma ZAL2-106 (FERM BP-8432). The assay is described as follows: competitive EIA: unlabeled human ZAQL-2 against HRP-labeled human ZAQL-2 on ZAL2-106a (50 ng/ml) captured on anti-mouse immunoglobulin plate.

B1: Human ZAQL-2 (human Bv8 maturation peptide) (ligand)
chain: AVITGACDKDSQCGGGMCCAVSIWVKSIRICTPMGKLGDSCHPLTRKVPFFGRRMHHTCPCLPGLACLRTSFNRFICLAQK
B1: the IC50 – broadly, the concentration needed to halve the response being measured – in assay [1] is 0.8 nM; in assay [2], 3 nM.

(Values after US20070014799A1.)
